One data set addresses T1, CiGBF3 (Citrus ichangensis (Ichang papeda), UniProt V4U7K8 1-421).
T1 sequence: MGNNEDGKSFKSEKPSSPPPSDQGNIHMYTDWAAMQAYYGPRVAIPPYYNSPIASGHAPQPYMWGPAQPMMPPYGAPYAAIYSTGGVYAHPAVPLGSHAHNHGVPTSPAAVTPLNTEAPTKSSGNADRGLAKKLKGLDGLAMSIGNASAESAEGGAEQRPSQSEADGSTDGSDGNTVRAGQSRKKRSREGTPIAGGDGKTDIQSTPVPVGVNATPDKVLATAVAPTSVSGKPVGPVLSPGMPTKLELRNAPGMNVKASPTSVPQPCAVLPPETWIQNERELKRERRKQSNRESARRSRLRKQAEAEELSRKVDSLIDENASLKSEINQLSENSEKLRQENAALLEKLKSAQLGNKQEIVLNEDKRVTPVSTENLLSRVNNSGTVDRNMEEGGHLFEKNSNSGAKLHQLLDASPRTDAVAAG
Description: EMSA; Chemiluminescent EMSA Kit (Beyotime GS009); buffer, salt, pH and temperature not stated. The settings on record: protein: recombinant; tags: His (pHMGWA vector); chain copies: 2; label: biotin; blunt.

A further data set has as its target CiNFYA1 (Citrus ichangensis (Ichang papeda), UniProt A0A067ER94 1-365). The data set is described as above. The settings on record: protein: recombinant; tags: His (pHMGWA vector); label: biotin; blunt.

Positions count from the first letter of the chain named.

Sequence of CiNFYA1 (A0A067ER94 entry or part of it): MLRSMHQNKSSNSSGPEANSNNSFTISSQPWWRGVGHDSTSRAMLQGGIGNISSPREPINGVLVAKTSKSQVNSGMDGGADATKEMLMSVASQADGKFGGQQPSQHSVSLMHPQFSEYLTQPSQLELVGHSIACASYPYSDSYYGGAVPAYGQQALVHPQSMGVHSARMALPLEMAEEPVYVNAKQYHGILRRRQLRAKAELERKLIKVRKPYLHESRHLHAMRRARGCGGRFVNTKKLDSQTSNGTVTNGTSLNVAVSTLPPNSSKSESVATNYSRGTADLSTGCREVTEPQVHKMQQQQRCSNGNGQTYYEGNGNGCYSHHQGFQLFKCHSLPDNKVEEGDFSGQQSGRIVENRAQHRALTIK

B1: CHS2-mCACGTG probe (mProbe2) (dsDNA)
DNA 1: GCAGCCTAACACTATCTTTTTTGTCAGCATCTGCCCGT
DNA 2: ACGGGCAGATGCTGACAAAAAAGATAGTGTTAGGCTGC
As for B1, the binding result in the data set with CiGBF3 is reported as “no binding”.

B2: CHS2-CACGTG probe (Probe 2) (dsDNA)
DNA 1: GCAGCCTAACACTATCCACGTGGTCAGCATCTGCCCGT
DNA 2: ACGGGCAGATGCTGACCACGTGGATAGTGTTAGGCTGC
With B2, in the data set with CiGBF3, the binding result is listed as “binds”.

B3: CHS2-CCAAT probe (Probe 1) (dsDNA)
DNA 1: AAAGATCCATTTAATATGTTCCAATTACCGCATTACAAGTACTAAA
DNA 2: TTTAGTACTTGTAATGCGGTAATTGGAACATATTAAATGGATCTTT
Turning to B3, the binding result with CiNFYA1 is reported as “binds”.

B4: CHS2-mCCAAT probe (mProbe1) (dsDNA)
DNA 1: B3 DNA 1 with T20A, C21A, C22A, T25A
DNA 2: B3 DNA 2 with A22T, G25T, G26T, A27T
With B4, in the data set with CiNFYA1, the binding result is listed as “no binding”.

The values above are taken from paper PMC12906813, “The Transcription Factors NFYA1 and GBF3 Jointly Regulate CHS2 to Promote Tangeretin Accumulation and Cold Tolerance in Citrus”.
